Laboratory results published in PMC4114240.
“And” between values parts separate entries of the source, which are not always exact repeats. Equal entries are not always repeated.

Biological target: Xanthomonas campestris pv. campestris RpfB with an N-terminal hexahistidine tag (Xanthomonas campestris pv. campestris 8004)
Test: SEC

With “Xanthomonas campestris pv. campestris RpfB with an N-terminal hexahistidine tag (enzyme)” the stoichiometry N was 3 and 6.
